Laboratory results reported in publication PMC2888438.

Biological target: TRIM25 (UniProt Q14258)
Experiment: co-immunoprecipitation, Western blot
Conditions: reference: wild type 2CARD; sites S8

binding against the reference: stronger
Substance: RIG-I 2CARD region (CARD1 and CARD2) (from UniProt O95786) S8A
